Article PMC10475850

Key:
[1] = biological target: Csp1 (cysteine-rich helical bundle copper-storage protein); assay: SEC; analytical size exclusion of the purified protein (Figure S8); conditions not given
[2] = biological target: Recombinant Human HB-EGF (human); assay: SPR; Biacore X100, multi-cycle kinetics; HB-EGF amine-coupled to CM5 chip (20 μg/mL, acetate pH 5.0); binders injected at five concentrations (nanomolar range) 180 s, 180 s dissociation; PBS with 0.05% Tween-20, 25°C, 10 μL/min; global fit
[3] = biological target: Recombinant Human EGF (human); assay: SPR; Biacore X100, multi-cycle kinetics; EGF amine-coupled to CM5 chip (100 μg/mL, acetate pH 4.0); binders injected at five concentrations (nanomolar range) 120 s, 180 s dissociation; PBS with 0.05% Tween-20, 25°C, 10 μL/min; global fit
[4] = biological target: Recombinant Human EGF (human)
[5] = biological target: Recombinant Human TGF-alpha (human); assay: SPR; Biacore X100, multi-cycle kinetics; TGF-α amine-coupled to CM5 chip (100 μg/mL, acetate pH 4.5); binders injected at five concentrations (nanomolar to low micromolar range) 60 s, 60 s dissociation; PBS with 0.05% Tween-20, 25°C, 10 μL/min; global fit

Row | Substance | stoichiometry N [1] | Kd [2] [nM] | koff [2] [s⁻¹] | kon [2] [M⁻¹ s⁻¹] | Kd [3] [nM] | koff [3] [s⁻¹] | kon [3] [M⁻¹ s⁻¹] | IC50 of inhibition of proliferation of A431 cells stimulated with 400 pM EGF (EGF acting on EGFR), d3-WT at 0.032-500 nM, 72 h [4] [µM] | Kd [5] [nM] | koff [5] [s⁻¹] | kon [5] [M⁻¹ s⁻¹]
1 | Csp1 (cysteine-rich helical bundle copper-storage protein) (natural protein) | 4 |  |  |  |  |  |  |  |  |  | 
2 | human EGFR domain 3 (d3-WT) (domain or fragment) |  | 370 | 0.0107 | 47200 | 56 | 0.0028 | 49700 | 0.476 | 2550 | 0.0577 | 38400
